Measurements as given in patent US20220213157A1 (PEKING UNIVERSITY, published 2022).

B1: rat CSQ2 (calsequestrin 2), amino acids 20-413, without the signal peptide (other)
chain: EEGLNFPTYDGKDRVVSLSEKNLKQVLKRYDLLCLYYHEPVSSDKVAQKQFQLKEIVLELVAQVLEHKNIGFVMVDSRKEAKLAKRLGFSEEGSLYVLKGGRTIEFDGEFAADVLVEFLLDLIEDPVEIVNNKLEVQAFERIEDQIKLLGFFKNEDSEYYKAFQEAAEHFQPYIKFFATFDKGVAKKLSLKMNEVGFYEPFMDEPSVIPNKPYTEEELVEFVKEHQRPTLRPLRPEDMFETWEDDLNGIHIVAFAEKSDPDGYEFLEILKQVARDNTDNPDLSILWIDPDDFPLLVAYWEKTFKIDLFKPQIGVVNVTDADSVWMEIPDDDDLPTAEELEDWIEDVLSGKINTEDDDNEDEDDDGDNDNDDDDDDDDNDDEDNDDDDDDDDDDE
notes: Entered as the monomer

Key:
[1] = biological target: human CSQ2 D348C mutant, without the signal peptide (human) (UniProt O14958); assay: cell-based or functional assay
[2] = biological target: the molecule itself; assay: crystal structure of rat CSQ2 with 200 mM Ca2+, homodimers in the asymmetric unit
Protocol: Human CSQ2 crystals were obtained according to a hanging drop vapor diffusion method (24-well hanging drop plate, XtalQuest) at 16° C. using 1.5 μL protein solution (25 mg/ml) and 1.5 μL reservoir solution containing 100 mM Na cacodylate (pH 6.0), 25% (vol/vol) 2-methyl-2,4-pentanedio (MPD) and 40 mM calcium lactate. Small needle-like crystals appeared within two days. After several rounds of stick seeding, the crystals had grown to approximately 50×50×400 μm. The Se-Met CSQ2 crystals were obtained using the same process. Diffraction data of native and Se-Met crystals were collected and were prcessed using CCP4 program suit (see, e.g., Winn, M. D. et al. Overview of the CCP4 suite and current developments. Acta. Crystallogr. D. Biol. Crystallogr. 67, 235-242 (2011). doi: 10.1107/S0907444910045749). The initial phase was determined by MR-SAD using PHENIX (see, e.g., P. D. Adams et al., PHENIX: a comprehensive Python-based system for macromolecular structure solution. Acta. Crystallogr. D. Biol. Crystallogr. 66, 213-221 (2010). doi: 10.1107/S0907444909052925). […] The phase was determined by molecular replacement using human CSQ2 structure as a searching model. […]
The crystal structures of the human CSQ2 protein and the rat CSQ2 protein were determined to be 2.2 Å and 2.8 Å with a high concentration of Ca²⁺ in the reservoir solution (40 mM Ca²⁺ for human CSQ2, 200 mM Ca²⁺ for rat CSQ2). […]

| Molecule | current of the CSQ2-immobilized single-molecule junction at 25 mV bias (1 mM Ca2+, 1.2 mM Mg2+) [1] | binding result [2] |
| --- | --- | --- |
| human CSQ2 D348C mutant, without the signal peptide (from UniProt O14958 20-399) | 15 pA | – |
| B1 | – | binds |
